Among the targets are TIEG1(DBD) (Homo sapiens, UniProt Q13118 363-480); TIEG1(DBD) S384E (Homo sapiens, UniProt Q13118 363-480, S384E); TIEG1(DBD) S384E/T445E (Homo sapiens, UniProt Q13118 363-480, S384E;T445E); TIEG1(DBD) T445E (Homo sapiens, UniProt Q13118 363-480, T445E); TIEG1(DBD) S384A/T445A (Homo sapiens, UniProt Q13118 363-480, S384A;T445A); TIEG1(DBD) S384A (Homo sapiens, UniProt Q13118 363-480, S384A); TIEG1(DBD) T445A (Homo sapiens, UniProt Q13118 363-480, T445A).

Common to all, as to assay: EMSA
(In general: A gel shift assay detects complexes by their altered migration in electrophoresis.)

TIEG1(DBD) S384E, sequence (Q13118 363-480 S384E): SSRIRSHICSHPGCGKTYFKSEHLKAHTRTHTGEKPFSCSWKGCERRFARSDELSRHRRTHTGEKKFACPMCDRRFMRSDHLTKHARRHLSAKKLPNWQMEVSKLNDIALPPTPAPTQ
TIEG1(DBD), sequence (Q13118 363-480): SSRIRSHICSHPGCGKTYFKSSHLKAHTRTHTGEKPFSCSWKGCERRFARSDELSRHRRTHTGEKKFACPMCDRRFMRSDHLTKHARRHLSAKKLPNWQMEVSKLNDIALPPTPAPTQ
TIEG1(DBD) T445E, sequence (Q13118 363-480 T445E): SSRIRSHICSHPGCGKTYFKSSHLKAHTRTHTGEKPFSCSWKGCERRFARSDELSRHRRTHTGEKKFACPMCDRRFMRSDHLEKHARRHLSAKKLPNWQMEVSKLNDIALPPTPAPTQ
TIEG1(DBD) T445A, sequence (Q13118 363-480 T445A): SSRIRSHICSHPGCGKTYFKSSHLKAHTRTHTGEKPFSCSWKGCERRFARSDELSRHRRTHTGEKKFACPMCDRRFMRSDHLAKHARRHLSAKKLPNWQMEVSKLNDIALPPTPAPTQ
TIEG1(DBD) S384A, sequence (Q13118 363-480 S384A): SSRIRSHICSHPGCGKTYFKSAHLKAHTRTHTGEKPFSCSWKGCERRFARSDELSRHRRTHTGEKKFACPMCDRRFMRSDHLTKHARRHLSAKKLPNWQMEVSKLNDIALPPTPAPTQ
TIEG1(DBD) S384E/T445E, sequence (Q13118 363-480 S384E/T445E): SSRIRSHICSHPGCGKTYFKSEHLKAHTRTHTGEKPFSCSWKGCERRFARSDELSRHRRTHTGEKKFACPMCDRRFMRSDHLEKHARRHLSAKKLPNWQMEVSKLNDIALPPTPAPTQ
TIEG1(DBD) S384A/T445A, sequence (Q13118 363-480 S384A/T445A): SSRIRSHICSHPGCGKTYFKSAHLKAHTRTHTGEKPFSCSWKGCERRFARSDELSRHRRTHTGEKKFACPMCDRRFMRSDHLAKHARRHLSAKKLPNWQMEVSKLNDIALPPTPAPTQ

B1: set I TIEG1 site (dsDNA)
DNA 1: TGCAGTGAAAAGGGGGTGTGTCAGGATGC
DNA 2: TGCATCCTGACACACCCCCTTTTCACTGC
B1: the binding result in the series with TIEG1(DBD) is reported as “binds”; in the series with TIEG1(DBD) S384E, “no binding”; with TIEG1(DBD) S384E/T445E, “no binding”; in the series with TIEG1(DBD) T445E, “binds”; in the series with TIEG1(DBD) S384A/T445A, “binds”; with TIEG1(DBD) S384A, “binds”. The binding result with TIEG1(DBD) T445A is recorded as “binds”.
